Laboratory results: the supplement of paper PMC9170038

How the values were obtained:
MS2 coat protein [1] = assay: apparent KD of MS2 coat protein, switch ON state; designed switch direction (-1 OFF switch, 1 ON switch): -1; higher = weaker reporter binding; conditions: FMN input: 0 or 200 uM; Eterna round: R93 (includes R88 designs)
Procedure, shortened: (§1)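 Designed RNA switches, transcribed on-chip from Illumina sequencing clusters, were titrated with SNAP-549-labelled MS2 coat protein from 0.7 or 1.5 nM to 3 µM in twofold steps. The solution was 100 mM Tris-HCl pH 7.5, 80 mM KCl, 4 mM MgCl2, with constant ligand or without it. Apparent KD is the median over each design's normalised cluster binding-curve fits.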

MS2 coat protein [2] = assay: apparent KD of MS2 coat protein, switch OFF state (with FMN for OFF switches, without FMN for ON switches); designed switch direction (-1 OFF switch, 1 ON switch): -1; higher = weaker reporter binding; conditions: FMN input: 0 or 200 uM; Eterna round: R93 (includes R88 designs)
Procedure, shortened: as §1

Row | Sequence | apparent KD of MS2 coat protein (MS2 coat protein [1]) [nM] | apparent KD of MS2 coat protein (MS2 coat protein [2]) [nM]
1 | AACAUGUCAGGAUAUUUAAGAAAAGAAAAGAAAGAAAAGAAAAAGAAGGGACAUGAGGAUCACCCAUGUAAGAA [EteRNA is fun!] | 117 | 56.8
2 | GAAAAGUCAGGAUAUAUAGGAAAAAUAAAAAAAAUAAAACUAUAGAAGGGACAUGAGGAUCACCCAUGUUAAAG [Mat - Exclusion 4 - Mayanna - D132] | 44.5 | 25.5
3 | AACUGUACAGGAUAUACAUGAGGAUCACCCAUGUGAGAAUUAAGUGGCGAACCACAAAGUAGAAGGGUACAGGA [Mat - Exclusion 3 - JL mod - D16] | 50.3 | 138
4 | AAGGGACAUGAGGAUCACCCAUGUGAGGAUAUGAUGCGAAUAAAGAAAGAAUAAAGCAUCAGAAGGCACACCAA [Mat - Exclusion 1 - Eli mod - D66] | 77.2 | 109
5 | AAAAAACAUGAGGAUCACCCAUGUGAGGAUAUGCAAAACCCAUAUAAAAAGGGAAAAAGUAGAAGGCGCAAAAA [wbt round 1 mod 9] | 20.5 | 17.4
6 | AGUCAUACAGGAUAUACAUGAGGAUCACCCAUGUAAAUCCUAAAAAGAAAAAAAUCAUGUAGAAGGGUAUGACA [EX3 224: Super Stable 24] | 13 | 17.2
7 | AAAAAACAUGAGGAUCACCCAUGUAAGGAUAUGUAAAAUAAAAGAAAAAUAAAGAAAAGCAGAAGGUACAUGGA [JL wbt mod 15] | 54.9 | 91.1
8 | AAGUCCAUAGGAUAUAUAUGGAUAUACAUUUAUGUAGAACUACAUGAGGAUCACCCAUGUAGAAGGAUGGAAUA [Mat - Same state - Mayanna Mod - D141] | 19.5 | 14.1
9 | GCUUGCGAAGGAUAUACAUGAGGAUCACCCAUGUGAGAGAAAAAAGUGAGAAAGAAAAGUAGAAGGUCGUGAGG [salish99-ex3-95] | 28.3 | 72.8
10 | AACAGUACAGGAUAUACAUGAGGAUCACCCAUGUGAAAAUUAAGUGGCGUACCACAAAGUAGAAGGGUACUGGA [Moding Maslow revisited (73) 3] | 29.4 | 86.4
11 | CUCUUGUGAGGAUAUAGAAGAAAAGAAAAGAAAGAAAAGAACUAGAAGGCACAUGAGGAUCACCCAUGUAAGAA [EteRNA is fun!] | 38.7 | 67.7
12 | ACGAACCUAGGAUAUACAUGAGGAUCACCCAUGUACAACUAUCCAUGAAUGACACUCGGUAGAAGGAGGAUCAA [Rileenen] | 15 | 22.9
13 | CAUUCACAUGAGGAUCACCCAUGUAAGGAUAUCGAAAUAUAACUAAUCAAUAAACAAACGAGAAGGUACAAAAA [Exclusion 1 design 10] | 33.7 | 23.8
14 | CAGUACUGAGGAUAUACAUGAGGAUCACCCAUGUGUAAAAGCUAGGAAACUAGCACAUGUAGAAGGCAGUACUG [Ex3: 815] | 48.3 | 230
15 | AAGAACAGAGGAUAUACAUGAGGAUCACCCAUGUAAAAGAAAGAAAGGGAAAAGAAAAGUAGAAGGCUGAAGAA [Neferkare Heqawaset Amenemnisu] | 32.3 | 43.4
16 | AAAUAGCAAGGAUAUACAUGAGGAUCACCCAUGUGAACCAGGUAUGGAAUAGAAUAGAGUAGAAGGUGCAAAUA [Mod 3 of Ex 3 Tesla 8 - Jieux - Exclusion 3] | 30.2 | 37.8
17 | AAGAAGGUAGGAUAUACAAAAUAAAAGAAAAGAAAGAAAGAACAUGAGGAUCACCCAUGUAGAAGGGCCAAGAA [Khendjer] | 84.2 | 35.3
18 | AAAGGACGAGGAUAUACAUGAGGAUCACCCAUGUAAAAAACGUAAUAAAAGAACUUAUGUAGAAGGCGUCCAAA [69%, Moding Meechl, 7] | 60.9 | 221
19 | AAAAAGUAAGGAUAUAGCAAAGGUCACGAAAGUGACAAAGGCUAGAAGGUACAUGAGGAUCACCCAUGUCCAAA [Fiskers Exclusion 4 D2 63% 3] | 19.9 | 17.7
20 | GCUUGGCUAGGAUAUACAUGAGGAUCACCCAUGUGAGAGAAAAAAGUGAGAAAGAAAAGUAGAAGGAGUUGAGG [salish99-ex3-82] | 46.2 | 39.7
21 | AGGAACCUAGGAUAUACAUGAGGAUCACCCAUGUCACGAGUCAAACACAGGUAUCCUAGUAGAAGGAGGAACAC [Inlaveor] | 22 | 42.1
22 | GAAAAGUCAGGAUAUGUGGAAAAAAUAAAAAAAAUAAAAACACAGAAGGGACAUGAGGAUCACCCAUGUAAAAA [Mat - Exclusion 4 - Mayanna - D140] | 68.3 | 39

Row | Sequence | apparent KD of MS2 coat protein (MS2 coat protein [1]) [nM] | apparent KD of MS2 coat protein (MS2 coat protein [2]) [nM]
23 | AAGAAGUGAGGAUAUACAUGAACGAAAAAAAAAAAGAGCAUGUAGAAGGCACAUGAGGAUCACCCAUGUCAAAA [Georg Simmel] | 29.3 | 27.8
24 | AGUGAGUGAGGAUAUCCCUGAAGAAUAAAAGAAAUAACGAGGGAGAAGGCACAUGAGGAUCACCCAUGUACACA [May 64] | 30.6 | 24.8
25 | AAAGGUACAGGAUAUGCGUGGAAAAAGUGUAUUCAAAAAAAACAUGAGGAUCACCCAUGUAGAAGGGUACCAAA [MS2 Riboswitches On Chip Exclusion 2 wbt1] | 69.7 | 253
26 | AGCUAGUCAGGAUAUGCAUGAAUGUCAAAAGACGUAAAGGGACAUGAGGAUCACCCAUGUAGAAGGGACUAGCA [JL In the Red 4?] | 120 | 277
27 | AGCUAGUGAGGAUAUACGAACAUGUCAAAAGACUGUAAGGGACAUGAGGAUCACCCAUGUAGAAGGCACUAGCA [Diamond 55] | 55.7 | 294
28 | AAAAAGUCAGGAUAUAUCAAAAAAAAAGAAAAAAAAAAAAGAUAGAAGGGACAUGAGGAUCACCCAUGUAAAAA [water's exclusion 4 last] | 74.3 | 34.2
29 | GGUUGGCGAGGAUAUACAUGAGGAUCACCCAUGUGAGAGAAAAAAGUGUGAAAGAAAAGUAGAAGGCGCUGACG [salish99-ex3-54] | 31 | 13
30 | CCUAUGUCAGGAUAUCAGUAGUAAAAAAAAAAAAUUACUACUGAGAAGGGACAUGAGGAUCACCCAUGUACCUU [EX4 310: Super Stable 10] | 25.5 | 17.8
31 | CUCUUGUGAGGAUAUCAAAGAAAAGAAGAGAAAGAAAAGAAUGAGAAGGCACAUGAGGAUCACCCAUGUAAGAA [EteRNA is fun!] | 28.9 | 59.5
32 | AGGGAGUGAGGAUAUGCGAAAGAAAAAGAAAAAAAAAAAAAGCAGAAGGUACAUGAGGAUCACCCAUGUAAAAA [milkweed 6] | 29.8 | 29.1
33 | AAAAAGUCAGGAUAUGUGAAAAAAAAAAAAAAAAAAAAAAAACAGAAGGGACAUGAGGAUCACCCAUGUAAAAA [water's exclusion 4 2nd] | 60 | 46.4
34 | AAAAAGGGAGGAUAUACAGGAGGUAAGGAAAAAAAAAAAAAACAUGAGGAUCACCCAUGUAGAAGGCUUAAAAA [Ecls2-IV] | 30.3 | 22
35 | AACAAGACAGGAUAUACAUGAGGAUCACCCAUGUCACAAUAAAGCAGCGCAACACAAAGUAGAAGGGUCAUGGA [Ruby 10] | 73.8 | 59.2
36 | AAAAAACAUGAGGAUCACCCAUGUGAGGAUAUUGGUAUUCAAGAAACCCUCUUAAUAGCGAGAAGGCGCAAAAA [Brourd 613 Mod 18 - Jieux - Exclusion 1] | 22.2 | 19.8
37 | AGCUGGUUAGGAUAUACAUGAGGAUCACCCAUGUUAAAAAAAAAAAAAAGAUUAAAGUGUAGAAGGGAUUAGUA [Banishment 9 - Jieux - Exclusion 3] | 29.3 | 34.4
38 | GGUUUGCAAGGAUAUACAUGAGGAUCACCCAUGUGAGAGAAAAAAGUGAGAAAGAAAAGUAGAAGGUGCGGACG [salish99-ex3-121] | 22.3 | 62.7
39 | AAAAAUGGAGGAUAUACAUGAGGAUCACCCAUGUGUAACUAUACUAAGCACACCUCACGUAGAAGGCCAAAAAA [Gilly Gone Silly 12 - Jieux - Exclusion 3] | 105 | 321
40 | AAGGAGUAAGGAUAUCGGAAAGGACACGAAAGUGACAAAGACGAGAAGGUACAUGAGGAUCACCCAUGUAAAAA [milkweed 23] | 24.9 | 14.5
41 | GGAGGCCAAGGAUAUACAUGAGGAUCACCCAUGUGAGAGAAAAAAGUGAGAAAGAAAAGUAGAAGGUGGUUUCG [salish99-ex3-129] | 65.4 | 131
42 | CAAAGGUGAGGAUAUACAAGGAUAUGACGAAAGUCAUAAAAACAUGAGGAUCACCCAUGUAGAAGGCACCACAA [E2 64% 4] | 33.9 | 43.7
43 | AAGAAGACAGGAUAUACAUGAGGAUCACCCAUGUAAAAGAAAGAGGGAAAAGAGAAAAGUAGAAGGGUCAAGAA [Ptolemy III Euergetes I] | 16.8 | 20.5
44 | AAAUAGUUAGGAUAUACAUGAGGAUCACCCAUGUGGACUUAUGGAGAAUAGUUUAAUGGUAGAAGGGACUAAAA [EX2 Malc#25] | 52.8 | 36.5
